Laboratory results taken from PMC8920935.

Legend:
[1] = biological target: Escherichia coli YidC R366E/F433S, cysteine-less, with a cysteine introduced at position 405 (Escherichia coli) (UniProt P25714); assay: FRET or BRET; labelled Pf3 coat added in steps (60, 60, 150, 150, 150, 300, 300 nM; final 1.17 uM; 1 min each) to DOPC proteoliposomes with 300 nM labelled YidC; excitation 500 nm, acceptor signal at 669 nm; room temperature
[2] = biological target: Escherichia coli YidC, cysteine-less, with a cysteine introduced at position 405 (WT in the FRET assay) (Escherichia coli) (UniProt P25714); assay: as above

Kd [1]: 349 nM
Kd [2]: 241 nM
Substance: Pf3 coat protein, fluorescently labelled at residue 48 (from UniProt P03623 1-44) (natural protein)
